# Test results reported in patent US20240343803A1 (SHANDONG SIMCERE BIOPHARMACEUTICAL, published 2024).
# T1: Fusion protein of extracellular domain of human TIGIT and His-tag (human TIGIT ECD-his) (human)
# T1 chain: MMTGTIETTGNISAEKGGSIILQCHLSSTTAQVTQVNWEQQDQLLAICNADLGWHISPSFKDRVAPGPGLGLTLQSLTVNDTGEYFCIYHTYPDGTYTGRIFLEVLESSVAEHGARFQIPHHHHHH
# T2: Fusion protein of extracellular domain of human TIGIT and mouse IgG2a Fc fragment (human TIGIT ECD-mFc) (human)
# T2 construct: The entry includes the signal peptide (limits not recoverable) and the mouse IgG2a Fc
# T2 chain: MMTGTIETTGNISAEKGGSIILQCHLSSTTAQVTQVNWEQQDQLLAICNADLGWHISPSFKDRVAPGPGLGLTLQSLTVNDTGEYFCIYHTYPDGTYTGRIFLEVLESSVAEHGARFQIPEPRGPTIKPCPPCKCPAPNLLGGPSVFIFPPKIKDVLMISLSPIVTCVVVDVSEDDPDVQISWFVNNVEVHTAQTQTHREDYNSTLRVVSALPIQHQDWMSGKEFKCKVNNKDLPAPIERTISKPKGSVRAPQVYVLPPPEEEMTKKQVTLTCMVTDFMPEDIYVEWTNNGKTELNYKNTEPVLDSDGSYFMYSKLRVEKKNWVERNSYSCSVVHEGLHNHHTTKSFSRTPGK
# T3: Full-length human TIGIT on CHO-K1 cells (CHO-K1 human TIGIT) (human, UniProt Q495A1 22-244)
# T3 construct: NCBI XP_024309156.1; the entry includes the signal peptide (limits not recoverable); The strain (high, medium, low) is named under assay; also called high expression strain 1D2; medium expression strain 2D10
# T3 sequence: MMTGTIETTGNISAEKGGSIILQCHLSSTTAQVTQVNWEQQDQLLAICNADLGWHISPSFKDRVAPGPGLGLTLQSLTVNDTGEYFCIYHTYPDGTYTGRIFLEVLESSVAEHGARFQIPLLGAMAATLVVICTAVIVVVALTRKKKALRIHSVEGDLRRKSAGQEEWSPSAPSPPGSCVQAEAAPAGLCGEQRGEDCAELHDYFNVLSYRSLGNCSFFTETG
# Assays:
# [1] = target: T1, Fusion protein of extracellular domain …; assay: BIAcore
# [2] = target: T1, Fusion protein of extracellular domain …; assay: BIAcore; reference itself
# [3] = target: T2, Fusion protein of extracellular domain …; assay: ELISA, human TIGIT ECD-mFc
# In short: (§1)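 Plates blocked with 5% skim milk-PBS at 37° C for 2-4 h. Test antibodies applied as a 12-point 3-fold series from 13 nM for 1.5-2 h at 37° C. Read-out: HRP secondary (1:5000, 1 h, 37° C), TMB colour for 7-10 min at room temperature, acid stop, absorbance at OD450 nm.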
# [4] = target: T4, Fusion protein of extracellular domain of cynomolgus monkey TIGIT and mouse IgG2a Fc fragment (cynomolgus … (cynomolgus monkey)); assay: ELISA, cynomolgus monkey TIGIT ECD-mFc
# T4 construct: The entry includes the signal peptide (limits not recoverable) and the mouse IgG2a Fc
# In short: as §1
# [5] = target: T5, Full-length cynomolgus monkey TIGIT on CHO-K1 cells (CHO-K1 cynomolgus monkey TIGIT) (cynomolgus monkey); assay: cell binding, CHO-K1 cynomolgus monkey TIGIT
# T5 construct: NCBI XP_015300911.1
# In short: (§2)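 Binding was measured by flow cytometry after a 60-minute, 4° C incubation of the antibodies with 2×10⁵ CHO-K1 cells displaying full-length human or cynomolgus monkey TIGIT. Antibody titration: 12 points, threefold serial dilution from 80 nM, in 1% BSA-PBS.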
# [6] = target: T6, Fusion protein of extracellular domain of human TIGIT and human IgG1 Fc fragment (human TIGIT ECD-hFc) (human); assay: blocking of TIGIT ECD-hFc binding to CHO-K1 CD155 cells
# T6 construct: The entry includes the signal peptide (limits not recoverable) and the human IgG1 Fc
# In short: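 IC50 values come from inhibition curves in a cell-based ELISA using CHO-K1 CD155 cells. Antibodies premixed for 0.5 h with human TIGIT ECD-hFc (working concentration 30 ng/mL) were added to the fixed, blocked cells for 1.5-2 h at 37° C. Bound TIGIT was then detected with HRP secondary antibody and TMB at OD450 nm.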
# [7] = target: T3, Full-length human TIGIT on CHO-K1 cells …; assay: cell binding, CHO-K1 human TIGIT high expression strain
# In short: as §2
# [8] = target: T1, Fusion protein of extracellular domain …; assay: BIAcore; KD ratio, by the numbers to TIGIT-005-H2L1 of r33
# T4 sequence (chain, as listed by the source limits assumed): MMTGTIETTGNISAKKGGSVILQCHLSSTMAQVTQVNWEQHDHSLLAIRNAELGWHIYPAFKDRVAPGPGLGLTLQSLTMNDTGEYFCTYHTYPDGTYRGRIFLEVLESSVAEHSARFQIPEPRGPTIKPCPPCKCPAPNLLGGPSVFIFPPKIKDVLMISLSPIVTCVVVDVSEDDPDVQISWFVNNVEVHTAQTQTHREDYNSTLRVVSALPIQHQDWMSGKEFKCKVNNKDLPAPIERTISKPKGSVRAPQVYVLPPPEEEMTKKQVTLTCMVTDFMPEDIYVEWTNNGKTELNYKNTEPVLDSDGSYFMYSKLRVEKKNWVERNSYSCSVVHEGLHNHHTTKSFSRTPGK
# T6 sequence (chain, as listed by the source limits assumed): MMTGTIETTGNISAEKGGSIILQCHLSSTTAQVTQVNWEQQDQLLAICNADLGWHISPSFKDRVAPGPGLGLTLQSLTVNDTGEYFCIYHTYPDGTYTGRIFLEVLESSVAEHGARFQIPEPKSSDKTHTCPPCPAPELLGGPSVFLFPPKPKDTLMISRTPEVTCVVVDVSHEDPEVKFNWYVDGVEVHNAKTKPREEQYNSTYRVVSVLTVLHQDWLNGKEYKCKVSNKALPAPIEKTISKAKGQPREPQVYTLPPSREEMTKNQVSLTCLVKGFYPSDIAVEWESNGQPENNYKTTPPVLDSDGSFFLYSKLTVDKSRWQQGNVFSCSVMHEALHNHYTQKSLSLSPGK
# T5 sequence (chain, as listed by the source limits assumed): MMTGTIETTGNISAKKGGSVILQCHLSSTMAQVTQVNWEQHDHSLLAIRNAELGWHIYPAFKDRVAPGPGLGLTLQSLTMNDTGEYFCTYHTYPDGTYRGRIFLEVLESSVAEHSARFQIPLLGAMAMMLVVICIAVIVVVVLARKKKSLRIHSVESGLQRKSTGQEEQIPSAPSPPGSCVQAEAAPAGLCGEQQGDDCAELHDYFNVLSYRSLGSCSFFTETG
Binder,Kd [1] [pM],koff [1] [s⁻¹],kon [1] [M⁻¹ s⁻¹],Fold change vs chimeric antibodies (KD) [2] [fold],EC50 [3] [pM],EC50 [4] [pM],EC50 [5] [pM],IC50 [6] [pM],EC50 [7] [pM],Fold change vs chimeric antibodies (KD) [8] [fold]
"TIGIT-005-H2L1a (antibody, V domains shown, Humanized anti-TIGIT antibody with NG-site mutation in VL) VH: EVQLVQSGAEVKKPGASVKVSCKASGYAFTNYLIEWVRQAPGQRLEWMGVINPGSGGTNYKEKFKGRVTITADKSSSTAYMELSSLRSEDTAVYYCARGEYFFFDYWGQGTTVTVSS VL: DIVMTQSPDSLAVSLGERATINCKASQHVSQGVAWYQHKPGQSPKLLIYSASYRYTGVPDRFSGSGSGTDFTLTISSLQAEDVAVYYCQQHYNTPHTFGGGTKVEIK",3710,0.0105,2.83e+06,,28.9,35.7,56.1,716,12.9,50
"TIGIT-005-H2L1c (antibody, V domains shown, Humanized anti-TIGIT antibody with NG-site mutation in VL) VH: EVQLVQSGAEVKKPGASVKVSCKASGYAFTNYLIEWVRQAPGQRLEWMGVINPGSGGTNYKEKFKGRVTITADKSSSTAYMELSSLRSEDTAVYYCARGEYFFFDYWGQGTTVTVSS VL: DIVMTQSPDSLAVSLGERATINCKASQHVSDGVAWYQHKPGQSPKLLIYSASYRYTGVPDRFSGSGSGTDFTLTISSLQAEDVAVYYCQQHYNTPHTFGGGTKVEIK",184,0.000459,2.49e+06,,26.8,29.6,67.3,347,24.6,2.48
"TIGIT-005-H2L1b (antibody, V domains shown, Humanized anti-TIGIT antibody with NG-site mutation in VL) VH: EVQLVQSGAEVKKPGASVKVSCKASGYAFTNYLIEWVRQAPGQRLEWMGVINPGSGGTNYKEKFKGRVTITADKSSSTAYMELSSLRSEDTAVYYCARGEYFFFDYWGQGTTVTVSS VL: DIVMTQSPDSLAVSLGERATINCKASQHVSTGVAWYQHKPGQSPKLLIYSASYRYTGVPDRFSGSGSGTDFTLTISSLQAEDVAVYYCQQHYNTPHTFGGGTKVEIK",734,0.00248,3.38e+06,,23.8,32,36.8,358,27.9,9.89

# Binders with a lower Kd [1], results first:
Kd [1] [pM],koff [1] [s⁻¹],kon [1] [M⁻¹ s⁻¹],Fold change vs chimeric antibodies (KD) [2] [fold],EC50 [3] [pM],EC50 [4] [pM],EC50 [5] [pM],IC50 [6] [pM],EC50 [7] [pM],Fold change vs chimeric antibodies (KD) [8] [fold],Binder
77.4,0.000162,2.09e+06,1,15.2,25.8,150,579,29.9,,"TIGIT-CHI-006 (antibody, V domains shown, Human-mouse chimeric antibody) VH: EVQLQESGPGLAKPSQTPSLTCSVTGYSMTSDYWNWIRKFPGNKLEYMGYISYSGRTYYNPSLKSRISITRDTSKNQFYLQLNSVTTEDTATYYCARGDYSNYGGAMYDWGQGTSVTVSS VL: DIVMTQSHKFMSTSVGDRVSITCRASQGVSTTIAWYQQKPGQSPKLLIYSASYRYTGVPDRFTGSGSGTDFTFTISGVQAEDLAVYYCQQYYSSPFTFGGGTKLEIK"
98,0.000145,1.48e+06,1,15.9,18.4,74.1,637,33,,"TIGIT-CHI-070 (antibody, V domains shown, Human-mouse chimeric antibody) VH: QVQLQQPGTELVKPGASVKLSCRASGYTFTNYYMHWVKQRPGRGLEWIGRIDPDSGGSKYNEKFKSKATLTVDKLSSTAYMQLSSLTSEDSAVYYCAREGHYGFYSDYWGQGTTLTVSS VL: DIQMTQSPASLSASVGETVTITCRVSENIYSYLAWYQQKQGKSPQLLVYNAKTLAEGVPSRFSGSGSGTQFSLKINSLQPEDFGNYYCQHHYGNPLTFGAGTKLDLK"
